Reference: PMC3704941
Several values for one entry are separate records, joined by “and”; a condition that tells them apart may be missing. Identical values can stand only once.

Experiments:
[1] = target: truncated form of the monomeric type IV pilin from P. aeruginosa strain K122-4 [pilA (Δ1-28); ΔK122] (Pseudomonas aeruginosa strain K122-4); assay: SEC-MALS; silica-based column, 10 nm pore size, 10 mM Tris pH 7.4; 1 mg·mL^-1 ΔK122 incubated with MPD for 72 hours; relative peak areas
[2] = target: truncated form of the monomeric type IV pilin from P. aeruginosa strain K122-4 [pilA (Δ1-28); ΔK122] (Pseudomonas aeruginosa strain K122-4); assay: SEC-MALS; silica-based column, 10 nm pore size, 10 mM Tris pH 7.4; 1 mg·mL^-1 ΔK122 incubated with MPD for 3 hours; relative peak areas
[3] = target: truncated form of the monomeric type IV pilin from P. aeruginosa strain K122-4 [pilA (Δ1-28); ΔK122] (Pseudomonas aeruginosa strain K122-4); assay: SEC-MALS; silica-based column, 10 nm pore size, 10 mM Tris pH 7.4; 1 mg·mL^-1 ΔK122 incubated with MPD for 24 hours; Peaks 2-4
[4] = target: truncated form of the monomeric type IV pilin from P. aeruginosa strain K122-4 [pilA (Δ1-28); ΔK122] (Pseudomonas aeruginosa strain K122-4); assay: SEC-MALS; MALS of the SEC-separated Peak 3/4 aliquot of 15 mg·mL^-1 ΔK122 after 24 hours incubation with MPD; signal overload at the detector noted
[5] = target: truncated form of the monomeric type IV pilin from P. aeruginosa strain K122-4 [pilA (Δ1-28); ΔK122] (Pseudomonas aeruginosa strain K122-4); assay: SEC-MALS; silica-based column, 10 nm pore size, 10 mM Tris pH 7.4; 1 mg·mL^-1 ΔK122 before incubation with MPD; monomer to dimer

## truncated form of the monomeric type IV pilin from P. aeruginosa strain K122-4 [pilA (Δ1-28); ΔK122] (domain or fragment)
[1]
  percent of total protein in the higher molecular weight peaks (72 hours with MPD): 90%
[2]
  percent of total species in the higher molecular weight peaks (3 hours with MPD): 55.1%
[3]
  stoichiometry N: 14 and 20 and 40
[4]
  stoichiometry N: 4040
[5]
  percent of total species in the higher molecular weight peaks (before MPD): 17.5%
  stoichiometry N: 2
